Measured values taken from the supplement of paper PMC10567573.
± gives the standard deviation.

Assay: protein stability index of a GFP-peptide fusion (GPS, HEK-293T) (PSI 1-6); higher = more stable
[1] = treatment: DMSO, c terminus: a fixed tail appended
[2] = treatment: MLN4924 1 uM, 8 h, c terminus: a fixed tail appended
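Note: 24-mer peptide tiles fused after GFP, lentivirally expressed, FACS-sorted into six equal bins by GFP/DsRed ratio, decoded by Illumina sequencing, PSI is the read-weighted mean bin number.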

GVDWEHIRERPAAIPIEIKSIDDT [STK38L]
protein stability index [1]: 4.68 ± 0.25
protein stability index [2]: 4.99 ± 0.27

DDPSLRKTHSSPALSQGHVTGSKT [PSD2]
protein stability index [1]: 5.5 ± 0.32
protein stability index [2]: 5.5 ± 0.33

KEIQYLKDLIEEVRKARGKKRVP [ATF4]
protein stability index (treatment: DMSO, c terminus: native): 2.52 ± 0.47
protein stability index (treatment: MLN4924 1 uM, 8 h, c terminus: native): 2.33 ± 0.47

VHASGWNKILVPLVLLRQMLLELT [BCL2L13]
protein stability index [1]: 2.2 ± 0.3
protein stability index [2]: 2.3 ± 0.24

AQTLAYGDMNHEWIGNEWLPSLGL [PPFIA4]
protein stability index [1]: 2.54 ± 0.43
protein stability index [2]: 2.24 ± 0.029

LDKVKDGGYRPAEDKIFPVPEEPP [ZBED1]
protein stability index [1]: 5.11 ± 0.18
protein stability index [2]: 5 ± 0.16

MGANTSRKPPVFDENEDVNFDHFE [STK32A]
protein stability index [1]: 5.11 ± 0.26
protein stability index [2]: 5.134 ± 0.042

AKREETKAMESQRAYRFVQGKDWG [SPOPL]
protein stability index [1]: 3.09 ± 0.61
protein stability index [2]: 3.59 ± 0.37

APHSTFFDPIVLLPCDLPKVVSRA [LPCAT4]
protein stability index [1]: 2.67 ± 0.31
protein stability index [2]: 2.72 ± 0.15

IEDLEVTCTWKLPTLAKFSPYLGQ [PRAME]
protein stability index [1]: 2.62 ± 0.32
protein stability index [2]: 2 ± 0.58

LLDKAGVPPGVVNIVFGTGPRVGE [ALDH8A1]
protein stability index [1]: 2.53 ± 0.16
protein stability index [2]: 2.76 ± 0.51

AMTGTFPAYGMSPSLSTITSTSSS [DVL3]
protein stability index [1]: 3.68 ± 0.24
protein stability index [2]: 3.61 ± 0.17

TDGSVLAAGTHDGSVYFWATPRQV [WSB1]
protein stability index [1]: 2.9 ± 0.18
protein stability index [2]: 2.89 ± 0.37

LQVIKALKSSGLCESLTYGLPFIL [M1AP]
protein stability index [1]: 3.04 ± 0.94
protein stability index [2]: 2.81 ± 0.83

VWAHNLIAIARLRGSDLKVLEVTE [FBXO33]
protein stability index [1]: 2.63 ± 0.85
protein stability index [2]: 2.95 ± 1.1

ILIASRDIAAGEELLYDYGDRSKA [KMT5A]
protein stability index [1]: 3.44 ± 0.45
protein stability index [2]: 3.64 ± 0.65

PLSPIQASSVHLKSESSLPHQTSK
protein stability index [1]: 5.02 ± 0.19
protein stability index [2]: 5.05 ± 0.088

QALKRKKRFEKQLTQIDGTLSTIE [CHMP4C]
protein stability index [1]: 4.05 ± 0.18
protein stability index [2]: 3.96 ± 0.23

QYNRPISDFLTLHSIIISLVEAGA [FEM1B]
protein stability index [1]: 2.34 ± 0.53
protein stability index [2]: 2.36 ± 0.34

DLTSEDQIVLLKSSAIEVIMLRSN [VDR]
protein stability index [1]: 2.28 ± 0.21
protein stability index [2]: 2.05 ± 0.34

VSRGPGVNVGTTALWKHLKSMHRE [ZBED2]
protein stability index [1]: 3.22 ± 0.14
protein stability index [2]: 3.3 ± 0.32

EAEEEELRAELTKVEEEIVTLRQV [TPD52L2]
protein stability index [1]: 4.25 ± 0.26
protein stability index [2]: 4.63 ± 0.51

DSYTATGYGRAPGGLSLHDYKLLK [JUNB]
protein stability index [1]: 3.36 ± 0.24
protein stability index [2]: 3.39 ± 0.21

SVFSARDRDPNSLLISCAVSYRGA [TNXB]
protein stability index [1]: 2.4 ± 0.22
protein stability index [2]: 2.06 ± 0.16

VITKHNDDEQYAWESSAGGSFTVR [HSP90AB1]
protein stability index [1]: 3.98 ± 0.2
protein stability index [2]: 4.16 ± 0.21

SAGVPPSAPLQGAVPPTSSVPPVA [SNAP91]
protein stability index [1]: 4.79 ± 0.13
protein stability index [2]: 4.82 ± 0.15

AYLVPYLVLLIIIGIPLFFLELAV [SLC6A17]
protein stability index [1]: 3.83 ± 0.52
protein stability index [2]: 2.87 ± 0.28

HEMVAHRHRQEVLCKEMVPLAEQT [ZSCAN9]
protein stability index [1]: 4.42 ± 0.2
protein stability index [2]: 4.41 ± 0.19

FNLTPPICEQAEYHMFQREKVEVQ [KCNAB2]
protein stability index [1]: 3.72 ± 0.24
protein stability index [2]: 3.88 ± 0.17

NVTELLRDVAAWGRARATGGDLEE [DNAAF3]
protein stability index [1]: 3.63 ± 0.15
protein stability index [2]: 3.75 ± 0.31

HASKCEFLANLHITALLNVSRRTS [DUSP5]
protein stability index [1]: 2.2 ± 0.2
protein stability index [2]: 2.33 ± 0.22

EERAAPVLSCEAATQTERRLDLAA [FAM189A2]
protein stability index [1]: 5.05 ± 0.28
protein stability index [2]: 4.99 ± 0.12

PAQVHSSLSAGEKPGFLAPRDLPK [RASAL3]
protein stability index [1]: 4.63 ± 0.34
protein stability index [2]: 4.77 ± 0.41

NCQSVAQMNLLQKYSLLKLTALLE [DLC1]
protein stability index [1]: 2.25 ± 0.36
protein stability index [2]: 2.44 ± 0.11

SHKGAEELALALKGNTTLQQLDLR [LRRC45]
protein stability index [1]: 3.99 ± 0.18
protein stability index [2]: 4.17 ± 0.65

GARPLSTRVPRAAIVFTDGRAQDD [MATN2]
protein stability index [2]: 4.48 ± 0.68

SLPKRLCLVCGDVASGYHYGVASC [ESRRA]
protein stability index [1]: 2.22 ± 0.28
protein stability index [2]: 2.43 ± 0.48

PVMDVWARKQDMNTKRAIHTLAVM [KLHL14]
protein stability index [1]: 2.34 ± 0.1
protein stability index [2]: 2.33 ± 0.17

TIAAIDGLALGGGLELALACDIRV [AUH]
protein stability index [1]: 2.39 ± 1.2
protein stability index [2]: 2.33 ± 0.59

KTTQEAEKLLERQGQAKTPDSMFL [CDK11A]
protein stability index [1]: 4.68 ± 0.28
protein stability index [2]: 4.73 ± 0.2

LYCSTPTRTAEPAESSVPPVTSIG [SLC35F2]
protein stability index [1]: 3.98 ± 0.25
protein stability index [2]: 4.08 ± 0.2

MTTESGSDSESKPDQEAEPQEAAG [EPB41L3]
protein stability index [1]: 5.62 ± 0.33
protein stability index [2]: 5.56 ± 0.45

LGKTNAKAVSEMRQKIWNNMPKDH [DYNC2LI1]
protein stability index [1]: 3.38 ± 0.23
protein stability index [2]: 3.62 ± 0.37

QYEEIALKSKAEAEALYQTKFQEL [KRT71]
protein stability index [1]: 4.08 ± 0.35
protein stability index [2]: 4.18 ± 0.15

LLEQAGSLKGSLSVEEQLSLISGC [CRYL1]
protein stability index [1]: 2.98 ± 0.32
protein stability index [2]: 3.2 ± 0.39

KDLFTQRQNSAPARMLSSNERDSS [CDC25A]
protein stability index [1]: 4.88 ± 0.23
protein stability index [2]: 4.84 ± 0.25

GSFNGSEKETMQFLNDRLANYLEK [KRT36]
protein stability index [1]: 3.38 ± 0.28
protein stability index [2]: 3.58 ± 0.3

GGAAWSIGAAPFSGRRNWCSYVVT [EMID1]
protein stability index [1]: 1.94 ± 0.58
protein stability index [2]: 2.08 ± 0.095

TLLPWNFFMTATQYFTNRLDMSQN [SLC29A1]
protein stability index [1]: 2.9 ± 0.49
protein stability index [2]: 2.85 ± 0.37

GRTPLIKLSPKKTWEGFIGGFFAT [CDS2]
protein stability index [1]: 1.91 ± 0.24
protein stability index [2]: 2.09 ± 0.55

TGNSLNEPEEPSEIPERRDSGVGA [DLC1]
protein stability index [1]: 5.58 ± 0.19
protein stability index [2]: 5.59 ± 0.26

SAGNAPLNEEINIASSDSEVEIVG [C18orf25]
protein stability index [1]: 5.27 ± 0.31
protein stability index [2]: 5.46 ± 0.19

DDFRSKYQTEQSLRLLVESDINSI [KRT34]
protein stability index [1]: 3.77 ± 0.098
protein stability index [2]: 3.94 ± 0.27

GTIFIRNVLLFKKQNPGKFCLLSC [RETREG3]
protein stability index [1]: 2.7 ± 0.6
protein stability index [2]: 2.89 ± 0.34

GKAAQAGVAVGDWVLSIDGENAGS [PDLIM7]
protein stability index [1]: 3.97 ± 0.24
protein stability index [2]: 4.2 ± 0.42

QMQEDNSSFSLLLDLLSELYQKQP [INTS3]
protein stability index [1]: 2.38 ± 0.16
protein stability index [2]: 2.37 ± 0.31

SLDSLDGLSLTDESDSCVSFEAPL [PSD2]
protein stability index [1]: 4.95 ± 0.2
protein stability index [2]: 4.86 ± 0.23

APAHVDEQVFLYENARSGAEAEPE [ZBED1]
protein stability index [1]: 5.58 ± 0.21
protein stability index [2]: 5.51 ± 0.28

RAGHHPNQYATCRLCGRQVSRGPG [ZBED2]
protein stability index [1]: 2.35 ± 0.38
protein stability index [2]: 2.67 ± 0.59

FEMLSGFPPFFDDNPFGIYQKILA [PRKX]
protein stability index [1]: 2.47 ± 0.45
protein stability index [2]: 2.29 ± 0.3

STTTTTHITKTVKGGISETRIEKR [EPB41L3]
protein stability index [1]: 4.86 ± 0.2
protein stability index [2]: 5.01 ± 0.21

GDWSAFNQAPSGPVASSGEFFGSA [CLINT1]
protein stability index [1]: 4.16 ± 0.26
protein stability index [2]: 4.31 ± 0.18

CFRFRQSSGRRVSLHCLLDQFDKD [DENND6A]
protein stability index [1]: 2.5 ± 0.73
protein stability index [2]: 2.41 ± 0.53

HNYKEMRQLMKVVNEMCPNITRIY [CPXM2]
protein stability index [1]: 2.11 ± 0.37
protein stability index [2]: 2.17 ± 0.31

EVALDKGCSQFRLAVLDWNQRAMD [SAT2]
protein stability index [1]: 2.94 ± 0.48
protein stability index [2]: 2.95 ± 0.28

DNDPRDLIGDFSKGYLFHTVAGKH [CDC25A]
protein stability index [1]: 3.2 ± 0.13
protein stability index [2]: 3.41 ± 0.19

QARLRDVSRREGALGWAPAAPPPL [ZBED3]
protein stability index [1]: 3.44 ± 0.41
protein stability index [2]: 3.6 ± 0.35

ETWNPFKLQYQLRNVRERIAKNLV [GOLPH3L]
protein stability index [1]: 2.37 ± 0.34
protein stability index [2]: 2.37 ± 0.24

VTVSDASWVSELLWSLFVPFTVYQ [AUP1]
protein stability index [1]: 2.87 ± 0.55
protein stability index [2]: 3.14 ± 0.47

RSSHSSDSGGSDVDLDPTDGKLFP [ELF3]
protein stability index [1]: 5.34 ± 0.17
protein stability index [2]: 5.26 ± 0.32

GISNALHRLKLRLAIQEMVSLTSP [PPFIA4]
protein stability index [1]: 2.46 ± 0.22
protein stability index [2]: 2.18 ± 0.13

EGGTAVTGGQTVVNPWIIIGGVAT [SEPHS2]
protein stability index [1]: 2.68 ± 0.29
protein stability index [2]: 2.77 ± 0.43

LELGSYIKDLSVVHSDLSSIVILD [CTDNEP1]
protein stability index [1]: 2.4 ± 0.13
protein stability index [2]: 2.48 ± 0.62

ETEKEEEEEDREEEDENGLPRRRG [NEUROD6]
protein stability index [1]: 5.815 ± 0.053
protein stability index [2]: 5.62 ± 0.39

PSALVPSVTEYRLDGHTISDLSRS [MYBL2]
protein stability index [1]: 4.25 ± 0.2
protein stability index [2]: 4.25 ± 0.39

QRVEQLTRDLAGLRQFFKQLPSPP [CEBPD]
protein stability index [1]: 2.71 ± 0.34
protein stability index [2]: 2.82 ± 0.29

QVDGGANFSVDRWERKEGGGGISC [CPOX]
protein stability index [1]: 4.4 ± 0.12
protein stability index [2]: 4.48 ± 0.21

AGRGGAAGTAGVGETGSGDQAGGE [MYOZ1]
protein stability index [1]: 5.63 ± 0.24
protein stability index [2]: 5.43 ± 0.32

SCSSDGGIAVWNMDVSREEAPQWL [WDFY1]
protein stability index [1]: 3.07 ± 0.09
protein stability index [2]: 3.08 ± 0.23

NFCKEQAARISNKGKFSTDTKGKP [ZC2HC1A]
protein stability index [1]: 3.78 ± 0.2
protein stability index [2]: 4.27 ± 0.31

LKTLEEGLEGLEDAPPVELQLLHE [FANCE]
protein stability index [1]: 4.81 ± 0.26
protein stability index [2]: 4.91 ± 0.38

QSNVLCSIFGICMVFSGLCPLLLG [PTGFR]
protein stability index [1]: 2.75 ± 0.23
protein stability index [2]: 2.63 ± 0.34

LTTKDYMEMYNVIMTVKEDQFSAL [SLC6A17]
protein stability index [1]: 2.37 ± 0.39
protein stability index [2]: 2.38 ± 0.29

EFHQRRSEIIQITTGSKELDKLLQ [RAD51]
protein stability index [1]: 2.93 ± 0.2
protein stability index [2]: 3.03 ± 0.51

RPPGHHAQHSLMDGYCMFNHVAVA [HDAC6]
protein stability index [1]: 2.4 ± 0.43
protein stability index [2]: 2.27 ± 0.23

DLHFKMFDVGGQRSERKKWIHCFE [GNAI1]
protein stability index [1]: 1.73 ± 0.25
protein stability index [2]: 2.64 ± 0.35

TEGFTSGRHYWEVEVGDKTHWAVG [TRIM39]
protein stability index [1]: 2.85 ± 0.44
protein stability index [2]: 2.93 ± 1.1

VRKWRVKSALGAMGQWQLEVGDPA [DPCD]
protein stability index [1]: 2.46 ± 0.26
protein stability index [2]: 2.57 ± 0.21

EIALAPYQHLEEDMKSLKQVLEMK [MTUS2]
protein stability index [1]: 3.62 ± 0.17
protein stability index [2]: 3.65 ± 0.49
